Among the data in paper PMC11417369, “DNA sequence and chromatin differentiate sequence-specific transcription factor binding in the human malaria parasite Plasmodium falciparum” are binding signal values, retold here.

First the molecules themselves.
T1: PF3D7_0420300 D1 (Plasmodium falciparum, UniProt Q8I1N6 1956-2015)
T1 sequence: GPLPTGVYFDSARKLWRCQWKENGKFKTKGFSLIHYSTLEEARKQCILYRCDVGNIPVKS

T2: SIP2 D1 (Plasmodium falciparum, UniProt C6KSN9 177-235)
T2 sequence: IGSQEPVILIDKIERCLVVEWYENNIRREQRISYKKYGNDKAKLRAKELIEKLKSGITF

B1: CACACA_site7188 (dsDNA)
DNA 1: GTGCATAAATCATACACACACACATATATAAATATA
DNA 2: TATATTTATATATGTGTGTGTGTATGATTTATGCAC
B2: GTGCAC_site10774 (dsDNA)
DNA 1: ACGTTAAAATATTGGGTGCTAACACAATAAAAATAA
DNA 2: TTATTTTTATTGTGTTAGCACCCAATATTTTAACGT
B3: GTGCAC_site10768 (dsDNA)
DNA 1: TATATATATCTTTTGGTGCATATTTCGAATATATGT
DNA 2: ACATATATTCGAAATATGCACCAAAAGATATATATA
B4: GTGCAC_site10359 (dsDNA)
DNA 1: TACACTTGTAATTGCGTGCACGAAGGATATATATAT
DNA 2: ATATATATATCCTTCGTGCACGCAATTACAAGTGTA
B5: GTGCAC_site10538 (dsDNA)
DNA 1: TTATTATAATCATTAGTGCATATATTATTTTTATAT
DNA 2: ATATAAAAATAATATATGCACTAATGATTATAATAA
B6: GTGCAC_site9739 (dsDNA)
DNA 1: TTATAAATATTCACTGTGCACTGATGGAATATAAAT
DNA 2: ATTTATATTCCATCAGTGCACAGTGAATATTTATAA
B7: GTGCAC_site10711 (dsDNA)
DNA 1: TAATAAAATATGTACGTGCACATAATTATACTAAAA
DNA 2: TTTTAGTATAATTATGTGCACGTACATATTTTATTA
B8: GTGCAC_site10440 (dsDNA)
DNA 1: TATTACACATATTATGTGCACATATATAATCAATAT
DNA 2: ATATTGATTATATATGTGCACATAATATGTGTAATA
B9: GTGCAC_site9697 (dsDNA)
DNA 1: GAACATTTATTGTGTGTGCACAATTCTTTTTTAACC
DNA 2: GGTTAAAAAAGAATTGTGCACACACAATAAATGTTC
B10: GTGCAC_site9748 (dsDNA)
DNA 1: GTTAATCACCATGTGGTGCATATAAGGGCATATTAT
DNA 2: ATAATATGCCCTTATATGCACCACATGGTGATTAAC
B11: GTGCAC_site9794 (dsDNA)
DNA 1: AAAAATATATATTCAGTGCATATAACAAAAATTATA
DNA 2: TATAATTTTTGTTATATGCACTGAATATATATTTTT
B12: GTGCAC_site10243 (dsDNA)
DNA 1: ACATATTAAATATGAGTGCAATATATATATATATAA
DNA 2: TTATATATATATATATTGCACTCATATTTAATATGT
B13: GTGCAC_site9783 (dsDNA)
DNA 1: TAAATTTATATATAGGTGCGCAATTTGATAATAGTT
DNA 2: AACTATTATCAAATTGCGCACCTATATATAAATTTA
B14: GTGCAC_site10182 (dsDNA)
DNA 1: GTATGATGCATAAGAGTGCATAAGGATATTTCTTCA
DNA 2: TGAAGAAATATCCTTATGCACTCTTATGCATCATAC
B15: GTGCAC_site10625 (dsDNA)
DNA 1: TTTTTATTTTCATATGTGCACTTATATATATATATA
DNA 2: TATATATATATATAAGTGCACATATGAAAATAAAAA
B16: GTGCAC_site10484 (dsDNA)
DNA 1: AAATTTGCTTTACCAGTGCAAAAAAAAAAAAAAAAA
DNA 2: TTTTTTTTTTTTTTTTTGCACTGGTAAAGCAAATTT
B17: GTGCAC_site10571 (dsDNA)
DNA 1: GATTATTTCTAAAAAGTGCATATTTAAAAATCTCCT
DNA 2: AGGAGATTTTTAAATATGCACTTTTTAGAAATAATC
B18: GTGCAC_site9963 (dsDNA)
DNA 1: AATAATAAAAATATTGTGCACTTGTATATTTATTAT
DNA 2: ATAATAAATATACAAGTGCACAATATTTTTATTATT
B19: GTGCAC_site10077 (dsDNA)
DNA 1: TTCATTCAAATTAACGTGCACATTATTAGTAAAAAC
DNA 2: GTTTTTACTAATAATGTGCACGTTAATTTGAATGAA
B20: GTGCAC_site9473 (dsDNA)
DNA 1: TGTATTAACAAAAAGGTGCGGATATATATAAAAAAT
DNA 2: ATTTTTTATATATATCCGCACCTTTTTGTTAATACA
B21: GTGCAC_site10360 (dsDNA)
DNA 1: TACCCTTGCATGTAGGTGCAATTTTTTTTTTTTTTT
DNA 2: AAAAAAAAAAAAAAATTGCACCTACATGCAAGGGTA
B22: GTGCAC_site10175 (dsDNA)
DNA 1: ACTTTTTTGAACAACGTGCACGTATTCATAACAAAA
DNA 2: TTTTGTTATGAATACGTGCACGTTGTTCAAAAAAGT
B23: GTGCAC_site10226 (dsDNA)
DNA 1: TTTTATGCGCAATAAGTGCATTTAAAATATATATAT
DNA 2: ATATATATATTTTAAATGCACTTATTGCGCATAAAA
B24: GTGCAC_site10065 (dsDNA)
DNA 1: CTTAAAATATATTTAGTGCATATACTAATATATTAT
DNA 2: ATAATATATTAGTATATGCACTAAATATATTTTAAG
B25: GTGCAC_site9445 (dsDNA)
DNA 1: TCCTTTATTTTTAAAGTGCATATACATGTACATTAT
DNA 2: ATAATGTACATGTATATGCACTTTAAAAATAAAGGA
B26: GTGCAC_site10395 (dsDNA)
DNA 1: ACTTTAGAAATAGAGGTGCTATTTTTATTACCACAC
DNA 2: GTGTGGTAATAAAAATAGCACCTCTATTTCTAAAGT
B27: GTGCAC_site10227 (dsDNA)
DNA 1: TATACATATTTACAAGTGCATAATATTTTACAAAAA
DNA 2: TTTTTGTAAAATATTATGCACTTGTAAATATGTATA
B28: GTGCAC_site9916 (dsDNA)
DNA 1: TATTTCTTTTGGTTGGTGCATAAAATAATACAATAT
DNA 2: ATATTGTATTATTTTATGCACCAACCAAAAGAAATA
B29: GTGCAC_site9721 (dsDNA)
DNA 1: TATATATATATATATGTGCACTGGACATATTTTTAT
DNA 2: ATAAAAATATGTCCAGTGCACATATATATATATATA
B30: GTGCAC_site9684 (dsDNA)
DNA 1: TGTACGAGTCGTAGAGTGCAGTCTGGAGAAGAGTAC
DNA 2: GTACTCTTCTCCAGACTGCACTCTACGACTCGTACA

For one data set, the target named is T1, PF3D7_0420300 D1. As to the kind of experiment: gcPBM; about 25 ug protein; PBS, 1% milk, 0.2 mg/ml BSA, salmon testes DNA, 0.03% Triton X-100. The conditions noted are these: tags: N-terminal GST (pGEX-4T-1), kept; label: surface-attached array probe.
With B1, the binding signal is 9.95 ln median PBM intensity, better of two orientations.

Another data set deals with T2, SIP2 D1. The data set is described as above. The conditions noted are these: tags: N-terminal GST (pGEX-4T-1), kept; label: surface-attached array probe.
Turning to B2, the binding signal was 8.87 ln median PBM intensity, better of two orientations.

Take B3: the binding signal was 10.2 ln median PBM intensity, better of two orientations. Same read-out and setting: the same measure for B4: 8.81 ln median PBM intensity, better of two orientations; for B5: 8.55 ln median PBM intensity, better of two orientations. The same measure, in the same setting: the same measure for B6: 9.91 ln median PBM intensity, better of two orientations; for B7: 8.95 ln median PBM intensity, better of two orientations; for B8: 8.5 ln median PBM intensity, better of two orientations. On the same count and under the same terms, under B9 stands 8.57 ln median PBM intensity, better of two orientations; under B10, 10.1 ln median PBM intensity, better of two orientations. Regarding B11, the binding signal is 8.79 ln median PBM intensity, better of two orientations. The same measure, in the same setting: the same measure for B12: 8.44 ln median PBM intensity, better of two orientations; for B13: 10 ln median PBM intensity, better of two orientations; for B14: 9.94 ln median PBM intensity, better of two orientations. On to B15, for which the binding signal was 10.1 ln median PBM intensity, better of two orientations.

On to B16, for which the binding signal was 8.74 ln median PBM intensity, better of two orientations. The same measure, in the same setting: the same measure for B17: 9.76 ln median PBM intensity, better of two orientations. For the molecule B18, the binding signal is 9.87 ln median PBM intensity, better of two orientations.

B19: the binding signal is 10 ln median PBM intensity, better of two orientations.

Take B20: the binding signal was 9.85 ln median PBM intensity, better of two orientations. Still for that read-out and setting: under B21 stands 10 ln median PBM intensity, better of two orientations.

On to B22, for which the binding signal is 8.77 ln median PBM intensity, better of two orientations. For B23, the binding signal is 8.59 ln median PBM intensity, better of two orientations.

B24: the binding signal is 8.52 ln median PBM intensity, better of two orientations. Same read-out and setting: under B25 stands 8.63 ln median PBM intensity, better of two orientations; under B26, 8.7 ln median PBM intensity, better of two orientations; under B27, 8.65 ln median PBM intensity, better of two orientations. On the same count and under the same terms, the same measure for B28: 10.2 ln median PBM intensity, better of two orientations; for B29: 9.71 ln median PBM intensity, better of two orientations; for B30: 8.45 ln median PBM intensity, better of two orientations.
